These results are taken from article PMC7542365 (mBio, 2020).

The term Kd denotes the concentration at which binding is half-saturated.

The assay addresses T1, A/Brevig Mission/1/1918 H1N1 NA, soluble tetramer with His tag attached (influenza A virus A/Brevig …).
T1 chain: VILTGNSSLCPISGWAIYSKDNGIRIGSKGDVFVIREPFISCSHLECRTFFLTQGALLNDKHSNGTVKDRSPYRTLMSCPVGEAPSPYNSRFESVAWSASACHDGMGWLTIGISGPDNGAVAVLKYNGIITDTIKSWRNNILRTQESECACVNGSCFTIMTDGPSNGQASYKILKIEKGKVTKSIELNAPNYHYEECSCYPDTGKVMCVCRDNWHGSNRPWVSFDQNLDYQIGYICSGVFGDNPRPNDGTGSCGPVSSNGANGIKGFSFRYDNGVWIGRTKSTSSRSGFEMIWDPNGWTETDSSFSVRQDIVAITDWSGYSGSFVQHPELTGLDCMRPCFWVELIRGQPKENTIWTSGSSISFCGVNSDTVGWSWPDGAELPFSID
Briefly: SPR.

B1: Z2B3-D102R Fab (Fab, V domains shown)
VH: EVQLVQSGAEVKKPGSSVKVSCKASGGPFSSYGFSWVRQAPGQGLEWMGGIIPVYGTTNYAQKFQGRVTITADESTSTAYMELSSLKSEDTAVYYCARDLQRTPMVDRIIGSYYYYNGLDVWGQGTTVTVSS
VL: QSVLTQPASVSGSPGQSITISCTGASSDVGDYNYVSWYQQHPGKAPKLMIYDVSNRPSGVSNRFSGSKSGDTASLTISGLQAEDEADYYCSSYTRSSSVVFGGGTKLTVL
With B1, binding was put at a Kd of 1670 nM.
